# B1: FUT8 (parent)
# chain: YAHQPRTADEIPMEPGDIIGVAGN
# Variants of: B1
# Assay: protein stability index of a GFP-peptide fusion (GPS, HEK-293T) (PSI 1-6); higher = more stable
# Settings: c terminus: a fixed tail appended
# 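Note: lentivirally expressed fusions sorted by FACS into six bins by GFP to DsRed ratio, PSI derived from sequencing read proportions per bin multiplied by bin number.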
row,Variant,protein stability index
1,YAHQPRTADEIPMEPGDIMGVAGN,4.54
2,YAHQPRTADEIPMEPGDIPGVAGN,4.61
3,YAHQPRTADEIPMEPGDIWGVAGN,1.93
4,YAHQPRTADEIPMEPGDIAGVAGN,4.67
5,YAHQPRTADEIPMEPGDIDGVAGN,5.07
6,YAHQPRTADEIPMEPGDIGGVAGN,4.34
7,YAHQPRTADEIPMEPGDISGVAGN,4.55
8,YAHQPRTADEIPMEPGDIYGVAGN,4.06
9,YAHQPRTADEIPMEPGDIQGVAGN,4.25
10,YAHQPRTADEIPMEPGDIEGVAGN,5.21
11,YAHQPRTADEIPMEPGDINGVAGN,4.72
12,YAHQPRTADEIPMEPGDILGVAGN,3.65
13,YAHQPRTADEIPMEPGDITGVAGN,4.16
14,YAHQPRTADEIPMEPGDICGVAGN,4.22
15,YAHQPRTADEIPMEPGDIRGVAGN,4.4
16,YAHQPRTADEIPMEPGDIKGVAGN,4.42
17,YAHQPRTADEIPMEPGDIVGVAGN,4.17
18,YAHQPRTADEIPMEPGDIFGVAGN,3.78
19,YAHQPRTADEIPMEPGDIHGVAGN,4.02
20,YAHQPRTADEIPMEPGDIIVVAGN,3.5
21,YAHQPRTADEIPMEPGDIINVAGN,4.29
22,YAHQPRTADEIPMEPGDIIIVAGN,3.26
23,YAHQPRTADEIPMEPGDIIKVAGN,4.34
24,YAHQPRTADEIPMEPGDIIHVAGN,4.17

row,Variant,protein stability index
1,YAHQPRTADEIPMEPGDIIQVAGN,4.06
2,YAHQPRTADEIPMEPGDIIMVAGN,4.11
3,YAHQPRTADEIPMEPGDIIRVAGN,3.56
4,YAHQPRTADEIPMEPGDIICVAGN,3.73
5,YAHQPRTADEIPMEPGDIILVAGN,2.96
6,YAHQPRTADEIPMEPGDIIEVAGN,4.48
7,YAHQPRTADEIPMEPGDIIPVAGN,4.47
8,YAHQPRTADEIPMEPGDIISVAGN,3.86
9,YAHQPRTADEIPMEPGDIIWVAGN,2.08
10,YAHQPRTADEIPMEPGDIIYVAGN,3.37
11,YAHQPRTADEIPMEPGDIIDVAGN,4.59
12,YAHQPRTADEIPMEPGDIIAVAGN,4.26
13,YAHQPRTADEIPMEPGDIITVAGN,4.37
14,YAHQPRTADEIPMEPGDIIFVAGN,3.55
15,YAHQPRTADEIVMEPGDIIGVAGN,3.72
16,YAHQPRTADEIRMEPGDIIGVAGN,3.28
17,YAHQPRTADEIYMEPGDIIGVAGN,3.21
18,YAHQPRTADEIQMEPGDIIGVAGN,4.47
19,YAHQPRTADEISMEPGDIIGVAGN,4.08
20,YAHQPRTADEIWMEPGDIIGVAGN,2.4
21,YAHQPRTADEITMEPGDIIGVAGN,4.09
22,YAHQPRTADEIPMEPGSIIGVAGN,3.78
23,YAHQPRTADEIPMEPGVIIGVAGN,2.87
24,YAHQPRTADEIPMEPGAIIGVAGN,3.23

row,Variant,protein stability index
1,YAHQPRTADEIPMEPGPIIGVAGN,3.14
2,YAHQPRTADEIPMEPGHIIGVAGN,3.29
3,YAHQPRTADEIPMEPGLIIGVAGN,2.3
4,YAHQPRTADEIPMEPGTIIGVAGN,3.38
5,YAHQPRTADEIPMEPGMIIGVAGN,3.06
6,YAHQPRTADEIPMEPGRIIGVAGN,3.45
7,YAHQPRTADEIPMEPGWIIGVAGN,1.41
8,YAHQPRTADEIPMEPGKIIGVAGN,3.25
9,YAHQPRTADEIPMEPGIIIGVAGN,2.57
10,YAHQPRTADEIPMEPGFIIGVAGN,2.03
11,YAHQPRTADEIPMEPGQIIGVAGN,4.14
12,YAHQPRTADEIPMEPGGIIGVAGN,3.38
13,YAHQPRTADEIPMEPGCIIGVAGN,2.79
14,YAHQPRTADEIPMEPGNIIGVAGN,3.48
15,YAHQPRTADEIPMEPGEIIGVAGN,4.24
16,YAHQPRTADEIPMEPGYIIGVAGN,2.68
17,YAHQPRTADEIPTEPGDIIGVAGN,4.34
18,YAHQPRTADEIPVEPGDIIGVAGN,4.68
19,YAHQPRTADEIPEEPGDIIGVAGN,4.73
20,YAHQPRTADEIPCEPGDIIGVAGN,3.9
21,YAHQPRTADEIPNEPGDIIGVAGN,4.46
22,YAHQPRTADEIPYEPGDIIGVAGN,4.12
23,YAHQPRTADEIPKEPGDIIGVAGN,3.95
24,YAHQPRTADEIPHEPGDIIGVAGN,4.33

row,Variant,protein stability index
1,YAHQPRTADEIPAEPGDIIGVAGN,4.69
2,YAHQPRTADEIPQEPGDIIGVAGN,4.71
3,YAHQPRTADEIPWEPGDIIGVAGN,3.08
4,YAHQPRTADEIPPEPGDIIGVAGN,4.18
5,YAHQPRTADEIPSEPGDIIGVAGN,4.07
6,YAHQPRTADEIPGEPGDIIGVAGN,4.52
7,YAHQPRTADEIPREPGDIIGVAGN,4.43
8,YAHQPRTADEIPFEPGDIIGVAGN,3.43
9,YAHQPRTADEIPDEPGDIIGVAGN,4.82
10,YAHQPRTADEIPLEPGDIIGVAGN,4.1
11,YAHQPRTADEIPIEPGDIIGVAGN,3.87
12,YAHQPRTADEIPMEGGDIIGVAGN,4.16
13,YAHQPRTADEIPMEMGDIIGVAGN,3.68
14,YAHQPRTADEIPMEYGDIIGVAGN,3.31
15,YAHQPRTADEIPMEEGDIIGVAGN,4.57
16,YAHQPRTADEIPMECGDIIGVAGN,3.58
17,YAHQPRTADEIPMEVGDIIGVAGN,3.58
18,YAHQPRTADEIPMEIGDIIGVAGN,3.5
19,YAHQPRTADEIPMENGDIIGVAGN,4.08
20,YAHQPRTADEIPMEQGDIIGVAGN,4.25
21,YAHQPRTADEIPMESGDIIGVAGN,3.92
22,YAHQPRTADEIPMERGDIIGVAGN,4.23
